Measured values: paper PMC9998874, “Deacetylation induced nuclear condensation of HP1γ promotes multiple myeloma drug resistance” (Nature Communications, 2023)

Experiments:
Settings in all cases: both partners purified
[1] = biological target: T1, GST-MDC1-mC-IDR1 (UniProt Q14676 143-339); assay: pull-down; GST pull-down in vitro: GST-tagged mCherry-MDC1-IDR1 or -IDR2 held, purified HP1γ-GFP
T1 construct: MDC1 intrinsically disordered region 1 (IDR1), residues 143-339; In the droplet and turbidity assays the protein is called mCherry-MDC1-IDR1; also called GST-tagged-mCherry-MDC1-IDR1; MDC1-IDR1; source: purified
T1 sequence (looked up): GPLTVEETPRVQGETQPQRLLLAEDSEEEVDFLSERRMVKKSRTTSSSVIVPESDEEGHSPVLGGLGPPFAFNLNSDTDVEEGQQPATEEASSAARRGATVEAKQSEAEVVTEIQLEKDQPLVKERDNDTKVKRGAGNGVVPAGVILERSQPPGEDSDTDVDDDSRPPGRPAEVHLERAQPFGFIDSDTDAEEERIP

[2] = biological target: T2, GST-MDC1-mC-IDR2 (UniProt Q14676 354-539); assay: as above
T2 construct: MDC1 intrinsically disordered region 2 (IDR2), residues 354-539; In the droplet and turbidity assays the protein is called mCherry-MDC1-IDR2; also called GST-tagged-mCherry-MDC1-IDR2; MDC1-IDR2; source: purified
T2 sequence (looked up): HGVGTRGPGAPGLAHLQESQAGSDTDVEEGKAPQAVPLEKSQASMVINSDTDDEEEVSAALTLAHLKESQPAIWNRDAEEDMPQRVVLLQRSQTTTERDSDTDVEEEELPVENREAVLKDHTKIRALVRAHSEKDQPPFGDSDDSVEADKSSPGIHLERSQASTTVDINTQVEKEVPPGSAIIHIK

[3] = biological target: T3, purified HDAC1-flag (UniProt Q13547 1-482); assay: pull-down; GST pull-down in vitro: GST-tagged HP1γ held, purified HDAC1-flag as input
T3 construct: histone deacetylase 1 with a flag tag; also called HDAC1-flag fusion protein; flag-HDAC1; source: HEK293T, expressed, purified
T3 sequence (Q13547 whole entry, the tested form may be a part): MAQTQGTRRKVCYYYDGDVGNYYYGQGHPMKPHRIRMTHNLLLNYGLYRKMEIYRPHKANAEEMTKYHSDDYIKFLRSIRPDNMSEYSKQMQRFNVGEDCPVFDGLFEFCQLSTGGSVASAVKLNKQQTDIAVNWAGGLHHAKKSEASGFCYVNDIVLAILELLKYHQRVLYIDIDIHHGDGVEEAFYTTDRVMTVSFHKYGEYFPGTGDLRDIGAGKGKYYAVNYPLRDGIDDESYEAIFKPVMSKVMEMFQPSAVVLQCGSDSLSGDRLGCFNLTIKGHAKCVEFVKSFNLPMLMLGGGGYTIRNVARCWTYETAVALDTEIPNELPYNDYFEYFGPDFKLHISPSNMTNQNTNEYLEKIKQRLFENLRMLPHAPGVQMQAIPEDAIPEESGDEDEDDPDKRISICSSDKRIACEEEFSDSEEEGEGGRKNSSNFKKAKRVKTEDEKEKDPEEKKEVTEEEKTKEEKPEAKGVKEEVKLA

B1: purified HP1γ-GFP (natural protein)
chain: not shown
notes: HP1γ (CBX3) fused to GFP; the HP1γ-GFP of the pull-down is probably the full-length one (surmised); also called GFP-HP1γ; source: E. coli BL21, purified (glutathione agarose, released by HRV 3C protease)
[1]
  binding result: binds
[2]
  binding result: binds

B2: GST-fusion HP1γ protein (natural protein)
chain: not shown
notes: HP1γ (CBX3) fused to GST; Probably made in E. coli BL21 as the other GST fusions of the methods (surmised); also called GST-HP1γ; GST-tagged-HP1γ; source: purified GST-fusion protein ('in vitro expression')
[3]
  binding result: binds
